This is an account of results in article PMC10349104.

The Kd is the equilibrium constant for the complex coming apart. Read a high Kd as weaker binding. In general, koff refers to the first-order rate constant of dissociation. Low values mean a long-lived complex, high ones a short-lived complex. For orientation: kon means the rate constant with which the complex forms. A higher kon goes with fast association.

One experiment concerns the target T1, EVA-4, P0C8E9.
T1 chain: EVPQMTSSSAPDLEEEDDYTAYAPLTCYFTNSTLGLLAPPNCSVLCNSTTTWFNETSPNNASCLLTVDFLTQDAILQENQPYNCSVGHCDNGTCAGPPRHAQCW
Briefly: not stated; Kd of EVA-4 for human chemokines, three readings (source data of Supplementary Fig. 7); method and conditions not told for EVA-4.

Experiment [1] concerns the target EVA-A(C8) (Amblyomma americanum). Briefly: SPR. Background: In SPR one partner is held on a chip, and binding of the other changes the refractive index at the surface.
Experiment [2] addresses EVA-A(DN) (Amblyomma americanum). Briefly: SPR.
Experiment [3] addresses EVA-A(L39P) (Amblyomma americanum). Briefly: SPR.
Experiment [4] has as its target EVA-A(Y44A) (Amblyomma americanum). Briefly: SPR.
Experiment [5] deals with EVA-AAM1001 (Amblyomma americanum). Description: SPR.
Where [6] appears, read: remark: other sources report otherwise.

Values joined by “and” are separate entries in the source; they are usually repeats but may differ in a detail not shown here. Identical values can stand only once. Like-named read-outs stand apart in the source and are kept apart here.

B1: CCL4, P13236 24-92 (ligand)
chain: APMGSDPPTACCFSYTARKLPRNFVVDYYETSSLCSQPAVVFQTKRSKQVCADPSESWVQEYVYDLELN
Consider B1, for which the Kd with EVA-4, P0C8E9 (setting [6]) was 212 nM and 126 nM and 137 nM.

B2: CCL15 (ligand)
chain: QFTNDAETELMMSKLPLENPVVLNSFHFAADCCTSYISQSIPCSLMKSYFETSSECSKPGVIFLTKKGRQVCAKPSGPGVQDCMKKLKPYSI
modifications: not checked
In the case of B2, the Kd in experiment [1] (setting [6]) was 714 nM and 467 nM and 550 nM; in experiment [2] (setting [6]) it was 35.6 nM and 33.6 nM and 33 nM; in experiment [3] (setting [6]) it was 26.9 nM and 23 nM and 29.8 nM; in experiment [4] (setting [6]), 80.9 nM and 215 nM and 188 nM; in experiment [5] (setting [6]), 1.7 nM and 1.77 nM and 1.85 nM; in the experiment with EVA-4, P0C8E9, 287 nM and 216 nM and 218 nM. Further, the dissociation rate constant (koff) in experiment [1] (setting [6]) was 0.0149 s⁻¹ and 0.0104 s⁻¹ and 0.013 s⁻¹; in experiment [2] (setting [6]) it was 0.00216 s⁻¹ and 0.00209 s⁻¹ and 0.00218 s⁻¹; in experiment [3] (setting [6]), 0.0026 s⁻¹ and 0.00246 s⁻¹ and 0.00303 s⁻¹; in experiment [4] (setting [6]) it was 0.00852 s⁻¹ and 0.0138 s⁻¹ and 0.0129 s⁻¹; in experiment [5] (setting [6]), 0.000308 s⁻¹ and 0.000311 s⁻¹ and 0.000314 s⁻¹. The kon was 20800 M⁻¹ s⁻¹ and 22300 M⁻¹ s⁻¹ and 23700 M⁻¹ s⁻¹ in experiment [1] (setting [6]); 60800 M⁻¹ s⁻¹ and 62100 M⁻¹ s⁻¹ and 66000 M⁻¹ s⁻¹ in experiment [2] (setting [6]); 96500 M⁻¹ s⁻¹ and 107000 M⁻¹ s⁻¹ and 101000 M⁻¹ s⁻¹ in experiment [3] (setting [6]); 105000 M⁻¹ s⁻¹ and 64300 M⁻¹ s⁻¹ and 68500 M⁻¹ s⁻¹ in experiment [4] (setting [6]); 182000 M⁻¹ s⁻¹ and 175000 M⁻¹ s⁻¹ and 170000 M⁻¹ s⁻¹ in experiment [5] (setting [6]).

B3: CCL14 (ligand)
chain: TKTESSSRGPYHPSECCFTYTTYKIPRQRIMDYYETNSQCSKPGIVFITKRGHSVCTNPSDKWVQDYIKDMKEN
modifications: not checked
On to B3, for which the dissociation constant Kd in experiment [1] was 1.09 nM and 1.16 nM and 1.66 nM; in experiment [2], 0.12 nM and 0.109 nM and 0.11 nM; in experiment [3], 0.0403 nM and 0.0431 nM and 0.0505 nM; in experiment [4], 0.12 nM and 0.125 nM and 0.0725 nM; in experiment [5], 0.0551 nM and 0.0372 nM and 0.0569 nM; with EVA-4, P0C8E9, 0.765 nM and 1.17 nM and 1.14 nM. Moreover, the koff in experiment [1] is 0.000525 s⁻¹ and 0.00045 s⁻¹ and 0.000476 s⁻¹; in experiment [2] it was 8.54e-05 s⁻¹ and 7.6e-05 s⁻¹ and 7.69e-05 s⁻¹; in experiment [4], 6.21e-05 s⁻¹ and 5.76e-05 s⁻¹ and 3.35e-05 s⁻¹; in experiment [5], 6.24e-05 s⁻¹ and 5.52e-05 s⁻¹ and 6.41e-05 s⁻¹. For the same molecule, the kon in experiment [1] is 482000 M⁻¹ s⁻¹ and 389000 M⁻¹ s⁻¹ and 288000 M⁻¹ s⁻¹; in experiment [2], 714000 1/(M s) and 697000 1/(M s) (2×); in experiment [4] it was 519000 M⁻¹ s⁻¹ and 462000 M⁻¹ s⁻¹; in experiment [5], 1.1e+06 1/(M s) (2×) and 1.5e+06 1/(M s).
